The nature of the data set: protein stability index of a GFP-peptide fusion (GPS, HEK-293T) (PSI 1-6); higher = more stable.

We go through 53 proteins from the supplement of paper PMC10567573.
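Also: lentivirally expressed fusions sorted by FACS into six bins by GFP to DsRed ratio, PSI derived from sequencing read proportions per bin multiplied by bin number.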

Turning to FLGSSFSPVRCGGPGDASPRGCGA, the protein stability index (parent: IOH27052_23, c terminus: a fixed tail appended) was found to be 1.95.
Regarding LQEPGVFSPTPPQQFQPAGTDQVC, the protein stability index (parent: IOH26591_36, c terminus: a fixed tail appended) turned out to be 3.96.
FVSIAQSEQESLLQQAQAQFRMAQ: where the note is “parent: IOH27102_133, c terminus: a fixed tail appended”, the protein stability index is 2.09.
As for INPFTPDSLLLHSSGQCRRRKRTY, the protein stability index (parent: IOH27052_40, c terminus: a fixed tail appended) was determined as 3.35.
With TLVEAIKEQDGREVDWEYFYGLLF, the protein stability index (parent: IOH26584_46, c terminus: a fixed tail appended) was determined as 1.91.
Take KKIFKSHLKSSRNSTSVKKKSSRN: the protein stability index (parent: IOH27142_36, c terminus: a fixed tail appended) is 3.96.
In the case of KLNCDPSRIYKPQTRLKRKQPVRK, the protein stability index (parent: IOH26584_53, c terminus: a fixed tail appended) came out at 3.47.
Take LEAAEVILEHAHRGEQTTSQVSWE: the protein stability index (parent: IOH26591_31, c terminus: a fixed tail appended) was 4.39.
As for MLWVQRKRRRKETSECPSDKDKSP, where the note is “parent: IOH27431_1, c terminus: a fixed tail appended”, the protein stability index stood at 2.93.
As for FISRTSIPNAASEEGDEDDWASNK, the protein stability index (parent: IOH27052_73, c terminus: a fixed tail appended) turned out to be 4.02.
As for TFGDHHKDRRFAYGRSDVVVLCFS [RHOBTB1 WT], the protein stability index (parent: IOH27118_15, c terminus: a fixed tail appended) was determined as 1.99.
Turning to FWNIKQMWDTKTLGLRQHHCRKCG, the protein stability index (parent: IOH27506_50, c terminus: a fixed tail appended) was found to be 2.1.
As to FIDTYSDVGRYIDHYAAIKKAWDD, the protein stability index (parent: IOH26934_14, c terminus: a fixed tail appended) worked out at 1.85.
For the protein ADPVLDLPLPPPPPEPLSQVSMWD, the protein stability index (parent: IOH27581_23, c terminus: a fixed tail appended) came to 4.59.
Regarding FNYSVGFKDLNESLNALEDQDLDA, for the setting “parent: IOH27581_8, c terminus: a fixed tail appended”, the protein stability index stood at 4.47.
Take VDVQTELYLEEIADRIIEVDMECQ: under “parent: IOH27062_43, c terminus: a fixed tail appended”, the protein stability index amounted to 2.16.
Turning to QEKLQVLMAEGLLPAVKVFLDWLR, for the setting “parent: IOH27102_108, c terminus: a fixed tail appended”, the protein stability index came to 2.44.
Take ILLVGYPPFWDEDQHRLYKQIKAG: the protein stability index (parent: IOH26807_35, c terminus: a fixed tail appended) is 2.33.
As to LELKFVSSLRRQFEFSVDSFQIVL, where the note is “parent: IOH26845_27, c terminus: a fixed tail appended”, the protein stability index stood at 3.08.
For the protein ILGKVILWILHLLLECYIQYHHSK, under “parent: IOH26789_17, c terminus: a fixed tail appended”, the protein stability index turned out to be 2.97.
As to KLLSVIVWMLMLLLAVPNIILTNQ, the protein stability index (parent: IOH27142_24, c terminus: a fixed tail appended) was determined as 3.1.
Regarding TSECPSDKDKSPESHKAKNESWIK, the protein stability index (parent: IOH27431_3, c terminus: a fixed tail appended) is 3.1.
Regarding YCNFNKYIPRRLEEAAMQKCLVTE [RSAD1 WT], the protein stability index (parent: IOH26922_10, c terminus: a fixed tail appended) came out at 2.08.
Consider PPEPLSQVSMWDQRWQDHQPLLPI, for which the protein stability index (parent: IOH27581_25, c terminus: a fixed tail appended) was 3.15.
QRLEEQERRHREEKERRKKQQWEI: the protein stability index (parent: IOH27062_61, c terminus: a fixed tail appended) came out at 4.62.
As to LPLPPPPPEPLSQVSMWDQRWQDH, the protein stability index (parent: IOH27581_24, c terminus: a fixed tail appended) was found to be 3.74.
Regarding FQRAMHDYNQAEMKQRDNCKIRIQ [STX11 WT], the protein stability index (parent: IOH27407_24, c terminus: a fixed tail appended) came out at 2.68.
Take AGGFQQRQGLKYCLPLTFCIHTGL: the protein stability index (parent: IOH26934_31, c terminus: a fixed tail appended) is 2.73.
As to GHSHHSHHGHPSHQSHSLPNRRH, the protein stability index (parent: IOH27431_35, c terminus: native) worked out at 2.57.
Consider CIQQILEAVLHCHQMGVVHRDLKP, for which, under “parent: IOH26807_20, c terminus: a fixed tail appended”, the protein stability index was 2.46.
SAIYKWITDNFCYFRHADPTWQNS [FOXJ1 WT]: the protein stability index (parent: IOH27374_25, c terminus: a fixed tail appended) is 2.69.
As to KAASLARNLAKRRRTYLGGAAGRS, the protein stability index (parent: IOH27062_2, c terminus: a fixed tail appended) came to 2.6.
In the case of SQVSMWDQRWQDHQPLLPITDVP, the protein stability index (parent: IOH27581_27, c terminus: native) is 2.45.
Turning to IYKKYALQSAAGKDAAKQIAWIKD, the protein stability index (parent: IOH27247_70, c terminus: a fixed tail appended) came out at 2.16.
Take GGFPIIRDQIFRYVHDPECVATTG: the protein stability index (parent: IOH26934_44, c terminus: a fixed tail appended) amounted to 1.75.
Turning to YVKAKKSIDKDEEFAGSSPQSSKS, the protein stability index (parent: IOH26921_28, c terminus: a fixed tail appended) turned out to be 3.04.
For the protein HDPLWRRHCKKYWLISEEEKTQKN, the protein stability index (parent: IOH26934_9, c terminus: a fixed tail appended) was determined as 2.91.
As for LELQRQREARKRALARKQAQEQLR, under “parent: IOH27062_37, c terminus: a fixed tail appended”, the protein stability index was 3.77.
For the protein KQTIGNSCKACGYRGMLDTHHKLC [EIF5 WT], the protein stability index (parent: IOH27132_20, c terminus: a fixed tail appended) came out at 3.1.
For the protein LNAELEEKMMQEAEKLKAQGEYSR [CCDC89 WT], the protein stability index (parent: IOH27358_17, c terminus: a fixed tail appended) was 4.98.
In the case of TRKLSPGKKRCKDIKRLLVNFMYL, where the note is “parent: IOH27102_46, c terminus: a fixed tail appended”, the protein stability index was 2.32.
As to RPRRYVQPPEMIGPMRPEQFSDEV, the protein stability index (parent: IOH27258_3, c terminus: a fixed tail appended) stood at 3.67.
Take RALEEVEMKLQKNFLTQRENTIAG: the protein stability index (parent: IOH27431_29, c terminus: a fixed tail appended) turned out to be 3.73.
On to LWILHLLLECYIQYHHSKIRNRGY, for which the protein stability index (parent: IOH26789_18, c terminus: a fixed tail appended) was 2.02.
Turning to DEEERRRRVFDVPIRRRRCSRLF, the protein stability index (parent: IOH26934_79, c terminus: native) was 2.81.
On to ITYPPGVKEISDKISKEEMVRRLK, for which, where the note is “parent: IOH27247_3, c terminus: a fixed tail appended”, the protein stability index stood at 3.62.
Consider TNPDLIIVCAQSSQSLWNRLSVLL, for which the protein stability index (parent: IOH27102_112, c terminus: a fixed tail appended) turned out to be 2.77.
Take QPPEMIGPMRPEQFSDEVEPATPE: the protein stability index (parent: IOH27258_4, c terminus: a fixed tail appended) was 5.04.
With FIPAKTGKDVATQILEGELFDFDL, for the setting “parent: IOH27062_49, c terminus: a fixed tail appended”, the protein stability index amounted to 1.77.
On to FQEAMTHLQHKLICTRKPEEIRGG, for which the protein stability index (parent: IOH26845_36, c terminus: a fixed tail appended) was determined as 2.91.
On to FSPDFTLRNTLKSTSEDSLVKQEC, for which, for the setting “parent: IOH26921_45, c terminus: a fixed tail appended”, the protein stability index was 1.89.
Take MTVKPAKAASLARNLAKRRRTYLG: where the note is “parent: IOH27062_1, c terminus: a fixed tail appended”, the protein stability index stood at 2.85.
As to LLIPKEDGVITASEDRTIRVWLKR, the protein stability index (parent: IOH27506_6, c terminus: a fixed tail appended) stood at 2.04.
